Key:
[1] = target: recombinant gH/gL/gO trimer (human cytomegalovirus | human cytomegalovirus strain VR1814); assay: SPR; Biacore X100, CM5 chip, RT, 1:1 binding model; methods: antibody (4 μg/mL) captured by anti-human Fc IgG to about 100 RU, pentamer or trimer in five 2-fold dilutions injected at 30 μL/min, 90 s association, 600 s dissociation (the legend of Fig. 5 tells the reverse orientation)
MAb MSL-109 = assay: ELISA; conditions: read off a plot

MAb MSL-109 (antibody) was tested, and the Kd [1] was 20.7 nM, the koff [1] was 0.00987 s⁻¹ and the kon [1] was 476000 M⁻¹ s⁻¹.

Substance “recombinant gH/gL/UL128/UL130/UL131A pentamer (wild type) gH:D446A” has a percent of parent (MAb MSL-109) of 46%.

Substance “recombinant gH/gL/UL128/UL130/UL131A pentamer (wild type) gH:P171A” has a percent of parent (MAb MSL-109) of 6%.

In the case of “recombinant gH/gL/UL128/UL130/UL131A pentamer (wild type) gH:W168A”, the percent of parent (MAb MSL-109) is reported as 3%.

Reference: article PMC9784774
